Measured values reported in patent US20260158064A1 (NANJING PROBIO BIOTECH, published 2026).
Each block holds one molecule with its values, some of them ahead of it.

Tests used:
[1] = biological target: human ROR1 Kringle-His domain protein (amino acid sequence at positions 308-395, Acrobiosystems, RO1-H5223) (human) (UniProt Q01973); experiment: indirect ELISA, antigen coated at 1 ug/ml
[2] = biological target: human ROR1-His protein (fused with a His protein tag, Acrobiosystems, RO1-H522y) (human) (UniProt Q01973); experiment: indirect ELISA, antigen coated at 1 ug/ml
Sequence of human ROR1-His protein (fused with a His protein tag, Acrobiosystems, RO1-H522y) (human) (Q01973 30-403 limits assumed): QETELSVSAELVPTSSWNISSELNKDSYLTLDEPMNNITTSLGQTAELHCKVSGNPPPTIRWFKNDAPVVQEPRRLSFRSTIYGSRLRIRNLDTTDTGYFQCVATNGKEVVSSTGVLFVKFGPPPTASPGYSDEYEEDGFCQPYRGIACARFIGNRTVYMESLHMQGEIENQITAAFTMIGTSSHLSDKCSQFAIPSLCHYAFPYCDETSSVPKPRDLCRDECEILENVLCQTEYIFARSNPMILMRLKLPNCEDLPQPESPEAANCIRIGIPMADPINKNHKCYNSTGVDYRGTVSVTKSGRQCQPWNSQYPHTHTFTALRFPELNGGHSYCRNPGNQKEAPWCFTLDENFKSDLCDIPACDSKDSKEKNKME

[3] = biological target: human ROR1 expressed on CHO cells (CHO-K1/Human ROR1 stable cells) (human) (UniProt Q01973); experiment: flow cytometry, 10 ug/ml antibody on Human ROR1-CHO-K1 cells (curve 1), fluorescent secondary antibody
Sequence of human ROR1 expressed on CHO cells (CHO-K1/Human ROR1 stable cells) (human) (Q01973 30-937): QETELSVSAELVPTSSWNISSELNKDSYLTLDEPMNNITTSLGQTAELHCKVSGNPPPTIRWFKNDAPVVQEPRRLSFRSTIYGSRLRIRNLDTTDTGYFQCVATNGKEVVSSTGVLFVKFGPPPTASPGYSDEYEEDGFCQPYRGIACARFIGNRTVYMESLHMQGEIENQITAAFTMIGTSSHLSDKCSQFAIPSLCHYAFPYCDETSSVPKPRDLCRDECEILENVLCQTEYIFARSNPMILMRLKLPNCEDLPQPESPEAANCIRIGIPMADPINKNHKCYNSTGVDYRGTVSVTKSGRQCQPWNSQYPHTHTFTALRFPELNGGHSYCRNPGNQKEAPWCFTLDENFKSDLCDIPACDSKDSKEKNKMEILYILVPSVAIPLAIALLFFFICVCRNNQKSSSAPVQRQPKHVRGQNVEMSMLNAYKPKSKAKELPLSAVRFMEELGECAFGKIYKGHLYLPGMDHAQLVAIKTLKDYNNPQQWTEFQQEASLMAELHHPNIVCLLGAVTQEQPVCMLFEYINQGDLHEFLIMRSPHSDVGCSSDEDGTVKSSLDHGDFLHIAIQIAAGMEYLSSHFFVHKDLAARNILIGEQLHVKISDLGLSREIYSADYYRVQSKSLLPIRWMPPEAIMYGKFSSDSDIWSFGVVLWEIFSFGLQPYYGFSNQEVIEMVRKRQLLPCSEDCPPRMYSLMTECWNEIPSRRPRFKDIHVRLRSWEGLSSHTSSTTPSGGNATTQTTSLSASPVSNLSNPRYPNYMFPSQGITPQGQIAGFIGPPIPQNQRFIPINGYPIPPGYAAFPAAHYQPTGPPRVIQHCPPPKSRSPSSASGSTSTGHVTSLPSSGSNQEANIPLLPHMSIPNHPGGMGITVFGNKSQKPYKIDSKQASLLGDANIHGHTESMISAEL

[4] = biological target: mouse ROR1 expressed on CHO cells (CHO-K1/Mouse ROR1 stable cells) (mouse) (UniProt Q9Z139); experiment: flow cytometry, 10 ug/ml antibody on Mouse ROR1-CHO-K1 cells (curve 2), fluorescent secondary antibody
Sequence of mouse ROR1 expressed on CHO cells (CHO-K1/Mouse ROR1 stable cells) (mouse) (Q9Z139 30-937): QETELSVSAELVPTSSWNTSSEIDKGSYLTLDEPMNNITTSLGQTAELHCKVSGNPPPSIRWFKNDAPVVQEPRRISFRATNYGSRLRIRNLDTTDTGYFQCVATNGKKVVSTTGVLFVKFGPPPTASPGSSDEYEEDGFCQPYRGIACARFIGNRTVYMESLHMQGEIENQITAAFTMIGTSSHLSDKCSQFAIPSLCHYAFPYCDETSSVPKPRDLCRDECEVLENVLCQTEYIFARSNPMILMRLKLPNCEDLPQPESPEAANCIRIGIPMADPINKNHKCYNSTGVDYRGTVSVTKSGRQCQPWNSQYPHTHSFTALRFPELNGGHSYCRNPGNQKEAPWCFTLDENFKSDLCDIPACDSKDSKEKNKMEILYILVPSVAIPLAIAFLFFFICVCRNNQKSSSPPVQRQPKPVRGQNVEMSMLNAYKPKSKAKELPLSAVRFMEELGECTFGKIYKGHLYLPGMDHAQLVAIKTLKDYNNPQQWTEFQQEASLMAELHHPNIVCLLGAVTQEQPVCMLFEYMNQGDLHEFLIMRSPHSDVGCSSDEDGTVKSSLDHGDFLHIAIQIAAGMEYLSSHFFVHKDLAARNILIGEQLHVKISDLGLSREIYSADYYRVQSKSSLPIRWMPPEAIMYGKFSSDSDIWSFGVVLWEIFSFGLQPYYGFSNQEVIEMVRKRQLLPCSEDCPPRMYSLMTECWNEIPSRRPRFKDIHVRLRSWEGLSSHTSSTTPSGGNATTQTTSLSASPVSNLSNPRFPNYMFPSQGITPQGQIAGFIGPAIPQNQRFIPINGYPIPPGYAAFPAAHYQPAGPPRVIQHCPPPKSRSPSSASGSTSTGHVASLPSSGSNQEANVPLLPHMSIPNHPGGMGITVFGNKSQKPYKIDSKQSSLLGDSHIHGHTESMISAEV

[5] = biological target: human ROR1 expressed on the engineered cell line CHO-K1/ROR1 (human) (UniProt Q01973); experiment: flow cytometry of CHO-K1_ROR1 cells stained with the PE-labelled antibody; the ROR1- gate prints 0.75
[6] = biological target: human ROR1 expressed on the engineered cell line CHO-K1/ROR1 (human) (UniProt Q01973); experiment: flow cytometry of CHO-K1_ROR1 cells stained with the PE-labelled antibody; the CHO-K1 row of the same box prints 20.8
[7] = biological target: human ROR1 expressed on CHO cells (CHO-K1/Human ROR1 stable cells) (human) (UniProt Q01973); experiment: flow cytometry, 10 ug/ml on Human ROR1-CHO-K1 cells (curve 1), fluorescent secondary antibody
[8] = biological target: mouse ROR1 expressed on CHO cells (CHO-K1/Mouse ROR1 stable cells) (mouse) (UniProt Q9Z139); experiment: flow cytometry, 10 ug/ml on Mouse ROR1-CHO-K1 cells (curve 2), fluorescent secondary antibody
[9] = biological target: human ROR1 expressed on CHO cells (CHO-K1/Human ROR1 stable cells) (human) (UniProt Q01973); experiment: flow cytometry, 10 ug/ml on Human ROR1-CHO-K1 cells (curve 1), fluorescent secondary antibody; remark: listed apart in the source
[10] = biological target: mouse ROR1 expressed on CHO cells (CHO-K1/Mouse ROR1 stable cells) (mouse) (UniProt Q9Z139); experiment: flow cytometry, 10 ug/ml on Mouse ROR1-CHO-K1 cells (curve 2), fluorescent secondary antibody; remark: listed apart in the source
[11] = biological target: T1, human ROR1-His protein (fused with a His protein tag, Acrobiosystems, RO1-H522y) (human, UniProt Q01973 30-403); experiment: indirect ELISA, antigen coated at 1 ug/ml
T1 construct: also called recombinant human ROR1-His protein; not shown: His tag
T1 sequence (Q01973 30-403 limits assumed): as the sequence (Q01973 30-403 limits assumed) above
Experimental: (§1) Indirect ELISA was used to assess the binding capability of the above purified antibodies to human ROR1-related recombinant proteins. ELISA plates (Nunc) were coated with 1 μg/ml of human ROR1-His protein, human ROR1 Frizzled-His domain protein, and human ROR1 Kringle-His domain protein in 100 μl/well of CBS overnight at 4° C. The plates were washed with PBS-T (0.05% Tween) and blocked with 300 μl/well of PBS containing 3% skim milk at 37° C. for 1 hour. Subsequently, the blocking solution was discarded, and 100 μl of purified antibody at 8 μg/ml (about 100 nM) was added to the first well and diluted according to a 3-fold gradient to obtain a total of 11 test concentration gradients. The plates were then incubated for 1 hour at room temperature. The plates were washed 3 times with PBST and incubated with 100 μl/well of horseradish peroxidase-conjugated mouse anti-human IgG Fc fragment (GenScript) for 0.5 hours at 37° C. The plates were washed five times with PBST, a TMB chromogenic solution (GenScript) was then added, and the plates were incubated for 15 minutes at room temperature in the dark. The reaction was stopped by adding 50 μl of 1 M HCl stop solution (Sigma). The plates were read at 450 nm using a microplate reader. FIGS. 1-3 show the results of the ELISA experiment on the binding of 8 positive recombinant antibody clones to ROR1-related antigen proteins, and the EC₅₀ for each antibody is as shown in Table 2 below: the antigen binding capacity of the antibodies tested was all equal to or higher than that of the positive reference antibody R11-scFv.

[12] = biological target: T2, human ROR1 Kringle-His domain protein (amino acid sequence at positions 308-395, Acrobiosystems, RO1-H5223) (human, UniProt Q01973 308-395); experiment: indirect ELISA, antigen coated at 1 ug/ml
T2 construct: also called Human ROR1 Kringle-His protein; recombinant human ROR1 Kringle-His protein; not shown: His tag
T2 sequence (Q01973 308-395 limits assumed, form in doubt): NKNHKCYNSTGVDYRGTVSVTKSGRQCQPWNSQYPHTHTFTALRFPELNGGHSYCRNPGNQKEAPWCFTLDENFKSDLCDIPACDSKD
Experimental: as §1

[13] = biological target: T3, mouse ROR1 expressed on CHO cells (CHO-K1/Mouse ROR1 stable cells) (mouse, UniProt Q9Z139 30-937); experiment: flow cytometry, antibody at 10 ug/ml on CHO cells
T3 construct: whole, on cells
T3 sequence (Q9Z139 30-937): as the sequence (Q9Z139 30-937) above
Experimental: CHO cells expressing human and mouse ROR1 and parental cells as the negative control for detection were collected and washed 3 times with PBS. 2.5×10⁵ test cells and 100 μl of purified antibody at 10 μg/ml were added to a 96-well plate, and the plate was incubated at 4° C. for 1 hour. The cells were then washed 3 times with PBS, 100 μl of iFluor-labeled goat anti-human IgG, an Fcγ-specific fragment antibody, was added, and the plate was incubated at 4° C. for 45 minutes. Finally, the cells were washed 3 times with PBS, and the signals were read using FACS BD Calibur.

[14] = biological target: human ROR1 Frizzled-His domain protein (amino acid sequence at positions 165-305, Acrobiosystems, RO1-H5222) (human) (UniProt Q01973); experiment: indirect ELISA, plate coated with human ROR1 Frizzled-His, HRP anti-human IgG Fc, OD450
Sequence of human ROR1 Frizzled-His domain protein (amino acid sequence at positions 165-305, Acrobiosystems, RO1-H5222) (human) (Q01973 165-305 limits assumed, form in doubt): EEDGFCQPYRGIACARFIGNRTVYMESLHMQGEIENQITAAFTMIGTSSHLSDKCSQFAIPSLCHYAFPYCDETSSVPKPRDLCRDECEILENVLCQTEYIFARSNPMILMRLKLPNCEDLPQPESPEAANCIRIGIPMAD

Sequence of human ROR1 Kringle-His domain protein (amino acid sequence at positions 308-395, Acrobiosystems, RO1-H5223) (human) (Q01973 308-395 limits assumed, form in doubt): as the sequence (Q01973 308-395 limits assumed, form in doubt) above

Molecule: Positive reference antibody R11-scFv
- EC50 [1]: 1.17 µg/mL
- EC50 [2]: 0.104 µg/mL

Molecule: Positive Ab- Cirmtuzumab (antibody)
- Geometric Mean : Alexa Fluor 647-H [3]: 69000
- Geometric Mean : Alexa Fluor 647-H [4]: 32600

B1: single domain antibody AHP15580 (Fc fusion)
chain: QVQLVESGGGVVQPGGSLRLSCAASGFVLRVNTVSWYRQAPGKQRELVALITSESNEYYDDSVKGRFTISRDNAKNTIYLHMNSLKPEDTGVYFCNFITTWGQGTQVTVSS
notes: VHH expressed from pcDNA3.4-Fc (HuIgG1); not shown: human IgG1 Fc of the pcDNA3.4-Fc (HuIgG1) expression vector
- EC50 [11]: 0.0407 µg/mL
- EC50 [12]: 0.0294 µg/mL
- binding result [13]: binds

B3: single domain antibody AHP16026 (Fc fusion)
chain: QVQLVESGGGLVQPGGSLRLSCAVLGSIEQINDINYYRWYRQPPGKQRDLVASINNSGELIYADSVKGRFFISRDKYTVYLEMRSLKAEDTAVYYCNAQDRGEYWGRGTQVTVSS
notes: as for B1
- EC50 [12]: 1.91 µg/mL

Further lines, results first:

- ROR1+ gate, percent of cells [5]: 99.2
- Median : PE-H [6]: 13100
Molecule: PE anti-human ROR1 Antibody (BioLegend, Cat #357804)

- Geometric Mean : Alexa Fluor 647-H [7]: 137
- Geometric Mean : Alexa Fluor 647-H [8]: 93.3
- Geometric Mean : Alexa Fluor 647-H [9]: 286
- Geometric Mean : Alexa Fluor 647-H [10]: 135
Molecule: Human IgG (antibody)

- EC50 [11]: 0.0203 µg/mL
- binding result [13]: binds
- EC50 (read off the curve) [14]: 0.1 µg/mL
B2: single domain antibody AHP15768 (Fc fusion)
chain: QVQLVESGGGSVQAGGSLRLSCAVSGRSISLYNMGWFRQAPGKEREFVSAINWSGGRTYYADSVKGRFTISRNNAKNTMYLQMNSLKPEDTATYYCAVDVEGWFRVSGDAAGYDYWGQGTQVTVSS
notes: as for B1
